Drawing on a protein production outcome set (Wang et al. 2014), this text covers protein production for 14 sequences.

The series is described as follows: label from the status in PepcDB records.

In the case of “MVEEVQKHSVHTLVFRSLKRTHDMFVADNGKPVPLDEESHKRKMAIKLRNEYGPVLHMPTSKENLKEKGPQNAPDSYPHKQYPANQGQDVEYLVTGTHPYPPGPGVALTADTKIQRMPSESAAQSLAVALPSQTRVDANRTAPAGSEYRHPGASDRSQPTAMNSMIMETSNTKNSALMAKKAPTMPKPQWHPPWKLYRVISGHLGWVRCIAVEPGNQWFVTGSADRTIKIWDLASGKLKLSLTGHISTVRGVIVSTRSPYLFSCGEDKQVKCWDLEYNKVIRHYHGHLSAVYGLDLHPTIDVLVTCSRDSTARIWDVRTKASVHTLSGHTNAVATVRCQAAEPQIITGSHDTTIRLWDLVAGKTRVTLTNHKKSVRAVVLHPLHYTFASGSPDNIKQWKFPDGGFIQNLSGHNAIINTLAVNTDGVLVSGADNGTMHLWDWRTGYNFQRVHAAVQPGSLDSESGIFACAFDRSESRLLTAEADKTIKVYREDETATEETHPVSWKPEIIKRKRF”, the protein production entry was “failed”.

As to “MVEGTESATGAASAGDLVEGRHAAPKARAGKGGLARSSLLMALGTVVSRATGLIRQVLQAAALGTGLLASTYNTANTVPTSLYTLLIGGALNAVLVPQLVRARATQPDGGRAYEQRLVTLVLCVLGVGTALAVWAAPGIVALYMRDTPDSHEAFELTVVFARFLLPQIFFYGVFSILGQVLNAREKFGAMMWTPVLNNVVLIGMFGAYLSLMTVPDRVEDITGQQVRFLGVCTTAGIALQALALIPFVRAAGFRFRPRFDWRGTGLGKSVHAAKWTLLLVLANQVALTVVTNYANAVDQELPKAGAGYTAYTYAQTIWMLPQSIVTVSLVTALLPRMSRAVAEDRLPDLRADLSRVLRISGVVIVPAGFLFLALGPGIATLLFAHGAADAASAQPLGHMLQAFGLGLIPFSAQYLLLRGFYAFEDTRTPFFMAVWIAVVNIALATACHLLLPARWAVTGMAAGYTLSYLAGLLLTARLLRKRLGGRRLDDGELRRTYGKLLCASAVAAGAGWAAARATATTTPTALALAAGAVTMALVYVALARLLKVSELRLPGRG”, the protein production result is reported as “failed”.

For the sequence “MVEHATSETDLDRIVRMFDGANLIVHGFDGVIQRWTSGCEQLYGWSASEAVGNVVHDLLDTQFPAGVEELRTEVRDKGFWTGQVGHRRKDGVRLAIVTRWTVLELGDPDTLIIQSNNDVTLMQQVGDELRERQAHLQSILATVPDAMIVIDDKGCIASFSTAAEKLFGYSADEAIGQNVSMLMPSPDREAHDGYLDSYIRTGRRRIIGYGRVVVGLRKHGTTFPMELSVGEAVAGGKRTFTGFVRDLTSRHRIEAELRQSQKMEAVGQLTGGLAHDFNNLLAVIIGNLEMLEARLAEPGQLSLLREAQSAADDGARLTSQLLAFGRRQALAPTVLDVGALLGEFSDLVQRTLGDSVELRTIIPGRRLSAMADKAQLQSALLNLSINARDAMPAGGRLTIEISGVEIDADYVGMYPAIRPGRYVLISVTDTGTGMTSEVMERAFEPFFTTKPTGSGTGLGLSMVYGFAKQSAGHLQLYSEPGEGTTVRLFLPRADGGRDSHPDEQQVKDAPSPGTETILVVEDDARVRRVTISRLQTLGYSVIEATNGIDALKELEAGHDVALLFSDVAMPGMNGDELARKVRERWPRVKILLTSGFSEPHAAEKEIEAGAGWLKKPYTASEMSTRLRLLLDARHGSDSA”, the protein production entry is “failed”.

For “MVEPDRVFFVRVMREWISRFTGKIIENFEIHLSQPMGFAGDIMSLTEFATSRQVKNLVLDFSDPIQRNLSQAQQIIRDGLLRCRYPQKNELDVLQDCDDPMALHVSMKTRHLVMKTNMHANDFVGISIFLNSCPELESLTFDLVTSSRFVRAPSPLVIDPVSHWLTSKSYECLEKTLKVVKITKFRGSSNELHMLQYLLRTGCVMERVDLYEAEGLNHNQKRWVLAGVEEVQQNFKRASRHLRITLHNA”, the protein production result is “not failed”.

Turning to “MVERTAVFPAGRHSLYAEHRYSAAIRSGDLLFVSGQVGSREDGTPEPDFQQQVRLAFDNLHATLAAAGCTFDDIIDVTSFHTDPENQFEDIMTVKNEIFSAPPYPNWTAVGVTWLAGFDFEIKVIARIPEQ”, the protein production result was “not failed”.

Consider “MVEVSQFKDAMAQLASAVHIVTTSGETGQHGFTASAVCSVTDSPPTLLVCINSNARAYEHFVKNRVLMVNTLTAEQSSLSNIFASPLSQEERFSNASWTTLTTGSPMLQDALINFDCEITEIKHVGTHDILICKIVDIHQSNAKNALVYRNRVYHSV”, for which the protein production result is reported as “not failed”.

Take “MVFLVPFDGSPLADAALNRAVTYAKALDEDVVAVAFIPTGADYAERRRRVDPTEDFAAETAADDLRRKIEEATDDSELRYDDVSAHSTSELSTTIRQTARDVDANVVFLGSDDTEDIVVPIGEVTDGEDYDVHIVRRT”: the protein production result was “failed”.

Turning to “MVGFKPTDVPPTAAVKFIGAGTAACIADLFTFPLDTAKVRLQIQGESKAVHMKTASYKGVFGTISTMVKMEGPKSLYNGLAAGLQRQMSFASVRIGLYDSVKQFYTKGSEHAGIGSRLAAGCTTGAMAVAVAQPTDVVKVRFQAQANSSANRRYKGTMDAYRTIAREEGMRGLWKGTVPNITRNAIVNCTELVTYDLIKDSILKANIMTDNLPCHFTSAFGAGFCTTVIASPVDVVKTRYMNSAKGQYTSALNCALTMFRKEGPRAFYKGFMPSFLRLGSWNVVMFVTYEQLKRAMMSAQRSREAPF”, the protein production result is on record as “failed”.

Consider “MVGGVEELSIEQLASSISTYKEQLEQNFVCGLEFRIGEEKLNVRQLLSEDPRNSEYADMEKELKEVIALTEEVLATAKQNEISLSDAGVSAEATPGSPDLEGAWEKTGLRNDPIHEGKFPVGTKVQAVFSDDGEWYDATIEAHTANGYFVAYDEWGNKEEVDPDNVRPIEQNAIVEAERLAQATKNALKRKIEKAASSDYQTKTLPAKLKIDPNDPEDVKIAKRKKIHAFKSKARFEQLEVVQNKKQNDWQQFQTTKAKTKKVGFFTGRKKESIFKSPEDPFGKVGVTGSGKGLTDFQKREKHLHLKSGNAEGTDE”, for which the protein production result is reported as “failed”.

Consider “MVGISFVFDKISNGISSYKSIKGIEQAHKSKKIASDLREYGYKLLDCRKLEAAKDAFEEALRFDPTNPEIQMGLFKSAVFQPILTKNPTYYDAEIALKKIETILKKNPNDRHAYYFMGEIYRDSDPKKASNYYKKVISLDPKSYLTGLAYNSLAYIAATEKDNDLAFYYMKKAANLCEMNPTVLNNLSYQHLIRGQYEITIEKLTRLIKHDPYKIIVFWNIINSLRMIGKFQEAYIYNHMLIECIEDETTSYHAANLGAFFFQTDPSGDGVFFKEISGKKFYSYCSMALTCYVLDLTEEANMYLEKAQKLDCFSKASAIKFLYYNIECIQKNNVKLIYKLDDIKERLIKLDLFTNVSITVARNETQYINMAKV”, for which the protein production entry was “failed”.

Regarding “MVGKMNEWELALKNKDCKKLLELFDDYFDEVSEDKLEEELKRVGEVAVECEDFDLIHEIAHIYEHLGEAEKGIDLYKRIVEKRKGRNTEDYAEALYYLADAYDHFGMPEEALKTYEELLELEKRIGNKREIGLTLANLAIIKDELGNVEEAIKLMEEARKIFEELKDENNYLISLIDLAHFKYELGEYEEAMKLIREVLRNPVDKEIEVNARLVESEIYAGERKYKEAAISLRNALQRSEDDEELFSLVFDSLTEFLEGLFNESRYRELVEVSPLFAELFEDDTKYFFNAIKGLAEWRLGNEKAREEFEENYKNIQNEELKALLDEWRRPKLSLGLNL”, the protein production result is “failed”.

With “MVGTLYDKMYENFVEEVDAVDNGISQWAEGEPRYALTTTLSARVARLNPTWNHPDQDTEAGFKRAMDLVQEEFLQRLDFYQHSWLPARALVEEALAQRFQVDPSGEIVELAKGACPWKEHLYHLESGLSPPVAIFFVIYTDQAGQWRIQCVPKEPHSFQSRLPLPEPWRGLRDEALDQVSGIPGCIFVHASGFIGGHRTREGALSMARATLAQRSYLPQIS”, the protein production result is on record as “failed”.

For the sequence “MVHHDGTLQALITAYQKTPAFTDLAEATRKGYIRHIRQIEADFGDMPVQALADPRVRGEFLDWRDRLAQKSKRSADYAFSVLARILSWAHDRRKIPVNPCEKPGRLEHHHHHH”, the protein production result is “failed”.

With “MVIASIVIYKHSYSDLKQTLDSLLAVSSINKIVLVDNDHSDWASTYHHPKITYLKSDGNFGFGYGHNYAIKRFAAQSDYFLICNPDIVFESSEFEKLLNFIQTREEALFLPKIVYENGENQYGARLLPSPFNLFARRFSPKYAEQLDEDYLLKNFDLSKPIFAPYLHGCFMLFRSKALLELGGFDERFFMYMEDVDLSRRCAEKFGNIYYPLAQVIHLHEQGSYKNKTLLKAHLKSAWQYFCKWGWLYDAQRSSLNGKCLKQRNG”, the protein production result is listed as “failed”.
